Assay [1] deals with T1, recombinant human CAP1 (human), Q01518.
T1 chain: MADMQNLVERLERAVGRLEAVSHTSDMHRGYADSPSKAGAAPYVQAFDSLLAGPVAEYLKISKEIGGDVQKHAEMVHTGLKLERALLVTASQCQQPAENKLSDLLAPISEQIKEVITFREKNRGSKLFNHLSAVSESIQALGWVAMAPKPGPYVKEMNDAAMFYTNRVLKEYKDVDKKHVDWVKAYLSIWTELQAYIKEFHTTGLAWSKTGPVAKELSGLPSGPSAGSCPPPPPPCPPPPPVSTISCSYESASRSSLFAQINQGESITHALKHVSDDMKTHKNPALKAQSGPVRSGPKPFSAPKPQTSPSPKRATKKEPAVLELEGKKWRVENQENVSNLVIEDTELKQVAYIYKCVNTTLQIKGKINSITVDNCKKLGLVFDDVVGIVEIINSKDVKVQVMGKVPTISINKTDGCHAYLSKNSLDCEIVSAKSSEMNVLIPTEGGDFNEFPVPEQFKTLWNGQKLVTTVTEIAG
The assay can be described thus: ELISA. The note with it: remark: other sources report otherwise.

Assay [2] deals with T2, adenovirus-delivered human resistin (human), Q9HD89.
T2 chain: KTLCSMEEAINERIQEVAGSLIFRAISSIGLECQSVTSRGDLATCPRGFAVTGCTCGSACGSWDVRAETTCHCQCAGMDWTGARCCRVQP
Put plainly: non-reducing SDS gel. The note with it: remark: other sources report otherwise.

Several values for one entry are separate records, joined by “and”; a condition that tells them apart may be missing. Equal entries are not always repeated.

B1: non-Fc-conjugated recombinant human resistin protein, Q9HD89 19-108 (ligand)
chain: T2 chain
As for B1, in assay [1], the EC50 (usually the concentration giving half of the maximal effect) stood at 784 nM.

B2: adenovirus-delivered human resistin, Q9HD89 19-108 (ligand)
chain: T2 chain
In the case of B2, the stoichiometry N – broadly, a count of units in the complex or per binding partner – in assay [2] was 3 and 2.

The values above are taken from publication PMC3969988.
